Assay [1] addresses biotinylated hBLyS-ECD (human) (UniProt Q9Y275). Put plainly: ELISA on captured biotinylated hBLyS-ECD; control antibody 0.534 nM.
Assay [2] has the same target. The experiment in a line: BAFF R-coated ELISA, biotinylated hBLyS-ECD bound in presence of control antibody 0.0064 nM.
The target of assay [3] is extracellular domain of human BLyS protein (hBLyS-ECD), His-tagged, Ala134-Leu285 (human) (UniProt Q9Y275). Put plainly: cell-based or functional assay.
In assay [4] the target is biotinylated hBLyS-ECD (human) (UniProt Q9Y275). Put plainly: BAFF R-coated ELISA, biotinylated hBLyS-ECD bound in presence of control antibody 0.16 nM.
Assay [5] has the same target. Put plainly: ELISA on captured biotinylated hBLyS-ECD; control antibody 0.0213 nM.
The target is the same in assay [6]. Put plainly: BAFF R-coated ELISA, biotinylated hBLyS-ECD bound in presence of control antibody 0.032 nM.
Assay [7] has the same target. The experiment in a line: ELISA on captured biotinylated hBLyS-ECD; control antibody 2.67 nM.
Assay [8] shares this target. The experiment in a line: BAFF R-coated ELISA, biotinylated hBLyS-ECD bound in presence of control antibody 20 nM.
The target is the same in assay [9]. The experiment in a line: ELISA on captured biotinylated hBLyS-ECD; control antibody 0.107 nM.

Chain of biotinylated hBLyS-ECD (human) (Q9Y275 134-285): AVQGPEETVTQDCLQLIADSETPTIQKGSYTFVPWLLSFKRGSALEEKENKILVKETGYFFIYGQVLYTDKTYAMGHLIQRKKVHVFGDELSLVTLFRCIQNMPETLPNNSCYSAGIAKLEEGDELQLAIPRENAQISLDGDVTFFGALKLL
Chain of extracellular domain of human BLyS protein (hBLyS-ECD), His-tagged, Ala134-Leu285 (human) (Q9Y275 134-285): as above

hIgG Control (antibody): the OD450 nm was 0.062 OD450 nm in [1]; 1.99 OD450 nm in [2]; 1.79 OD450 nm in assay [4]; 0.0699 OD450 nm in [5]; 1.99 OD450 nm in assay [6]; 0.0652 OD450 nm in assay [7]. Moreover, the OD450 nm is 1.91 OD450 nm in assay [8] and 0.117 OD450 nm in [9]. In assay [3], this substance showed a Proportion of B lymphocytes in splenocytes (%), in vivo in mice of 39.4%.

For the origin of these results see patent US20210347873A1 (SHANGHAI PHARMAEXPLORER, published 2021).
